System: MS2 coat protein
Assay: apparent KD of MS2 coat protein; designed switch direction (-1 OFF switch, 1 ON switch): -1; higher = weaker reporter binding
Summary of the method: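 Normalised cluster fluorescence was curve-fitted, and each design's median over clusters is its apparent KD. Before this, SNAP-549-labelled MS2 coat protein was titrated from 0.7 or 1.5 nM, doubling to 3 µM, over RNA switches transcribed on Illumina chips by stalled E. coli RNA polymerase. Titrations had no input, 200 uM small-molecule ligand, or an oligonucleotide input, and steps lasted 0.8–1.5 h (lowest) to 10–20 min (highest).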

[1] = Eterna round: R95, input ligand: FMN 200 uM
[2] = Eterna round: R95, input ligand: microRNA oligo, concentration not stated
[3] = Eterna round: R95, input ligand: none
[4] = input ligand: microRNA oligo, concentration not stated

Sequence | apparent KD of MS2 coat protein [1] | apparent KD of MS2 coat protein [2] | apparent KD of MS2 coat protein [3] | apparent KD of MS2 coat protein (input ligand: FMN 200 uM) | apparent KD of MS2 coat protein [4] | apparent KD of MS2 coat protein (input ligand: none)
CUGGUCCGAGGAUAUAUUAAGUGAAACAUGAGGAUCACCCAUGUUAUUUAAUGGAUGUAAAUAGAAGGCGGACUAG [JL-ex5-3.12] (puzzle: Exclusion 5) | 29.9 nM | 37 nM | 42.8 nM |  |  | 
ACAUGAGGAUCACCCAUGUGACCACAAUGGCUGAUGUAACGACAGGAUAUGCGUGAAUAUCUAACGCAGAAGGGUCAUGACUGG [Deportation 61 - Jieux - Exclusion NG 3] (Eterna round: R96, puzzle: Exclusion NG 3) |  |  |  | 62.8 nM | 30.5 nM | 48.2 nM
UAAGGGUGCGUAGGAUAUCGCGGCCGAAUAAAGCGAGAAGGACGCCCUAAUGGGUCGUCCAACAUGAGGAUCACCCAUGUAUAC [Uslaarus] (Eterna round: R96, puzzle: Exclusion NG 1) |  |  |  | 55.4 nM | 31.2 nM | 41.5 nM
CGGUGUCAUGUAAGGAUAUCGCAUCCCAGCGGAUACGAGAAGGUACAUGAGGAUCACCCAUGUACGAUAAAAUA [Atzabian] (puzzle: Brourd's mod of Exclusion 4) |  | 12.5 nM |  |  |  | 
CAGUACUGAGGAUAUACAUGAGGAUCACCCAUGUGUCCCGGCUAGGAAACUAGCAAAAGUAGAAGGCAGUACUG [Fiskers Ex 3 828 mod 2] (Eterna round: R96, puzzle: Exclusion 3) |  |  |  | 494 nM | 21.6 nM | 24.1 nM
CCGGAAGUACAGGAUAUCGUAACGGAUACGUUACGAGAAGGGUAUACAUGAGGAUCACCCAUGUGUCCUACCGG [Mat - Exclusion 6 - Eli Mod - D95] (puzzle: Exclusion 6) | 27.8 nM | 26 nM | 27.1 nM |  |  | 
UUGUUGUAUGUAGGAUAUGCGUAUUAUUAUUAUGCAGAAGGACAUGAGGAUCACCCAUGUAUAUUAUUAUUAUAUGUUAUAUAU [Title] (Eterna round: R96, puzzle: Exclusion NG 1) |  |  |  |  | 17.9 nM | 
UUUCUCGUUGUGAGGAUAUCGUUUUUGUCUCGGAUCGAGAAGGCACAUGAGGAUCACCCAUGUUUGUUGUGGUU [JR_BMOE4_Sub089] (puzzle: Brourd's mod of Exclusion 4) |  | 74.9 nM |  |  |  | 
AGUGCGUAUGUGAGGAUAUGCUGGUCCUUGGAUCGGCAGAAGGCACAUGAGGAUCACCCAUGUGGUGUCGUACU [salish99_Bmod_ex4_084] (puzzle: Brourd's mod of Exclusion 4) |  | 280 nM |  |  |  | 
UACAUGAGGAUCACCCAUGUUUUGUCGUGUAUGGUAUUUAUCUAGGAUAUCAUUUUAAUUAGUUAUGAGAAGGAGAAUAUUAAU [JMF's solution 87] (Eterna round: R96, puzzle: Exclusion NG 3) |  |  |  | 33.7 nM | 24.4 nM | 32.5 nM
AACAAGUGAGGAUAUGAACCACUUGCCCACGCAUGCGUGGAUCAGAAGGCACUUGAGGAUCACCCAAGUCCUAA [Texeusso] (Eterna round: R97, puzzle: Exclusion 4) |  |  |  | 49.7 nM |  | 21.3 nM
CUGUGCACGCUGCGAUCCUACAUGAGGAUCACCCAUGUGGUCUGGUGGCGUGGGUCACCGGACUUGGCUCGUCUUGU [salish99_S_TOV1_R5_079] (Eterna round: R97, puzzle: Sensor, turn-off variant 1) |  |  |  | 79 nM |  | 90.7 nM
AUAAAGUGAGGAUAUCCAAUAUAUGACAUGAGGAUCACCCAUGUUUCCACUCGUACCUCCGGAGAAGGCACAAUUU [Ex5 #63] (Eterna round: R97, puzzle: Exclusion 5) |  |  |  | 24.5 nM |  | 29.2 nM
UUAAUUAAUUAAGGCUGAAGAUCACAUGAGGAUCACCCAUGUAAGGAUAUCAGCUCGUGUAGAGCUGAGAAGGUACAUGCAGCC [ExNG3/18-B3] (Eterna round: R96, puzzle: Exclusion NG 3) |  |  |  | 50.6 nM | 345 nM | 336 nM
UCGGCGCGAGGAUAUACGUUUGCGCGUUUUCGUUUGCGCGUACAUGAGGAUCACCCAUGUAGAAGGCGCGCCGC [Apr-15 SS2-14] (puzzle: Exclusion 2) |  | 13.2 nM |  |  |  | 
AUAUUACGAGGAUAUCGUCUCUCCCACAUGAGGAUCACCCAUGUUAUCCAUGUUUCGUUUCGAGAAGGCGUAAGUU [JR_E5_Sub071] (puzzle: Exclusion 5) |  | 65.2 nM |  |  |  | 
AAUUUAACAUAGGAUAUCGAAUUUAUCAUUUAACGAGAAGGAUGAACAUGAGGAUCACCCAUGUGGUAUCAUGG [Mat - Exclusion 6 - JL Mod - D2] (puzzle: Exclusion 6) | 155 nM | 373 nM | 180 nM |  |  | 
GUUAAGGUAGGAUAUACGAUAAUAGAGGGUAGAUAUAUAACACAUGAGGAUCACCCAUGUAGAAGGACCAAUUG [Mat - Exclusion 2 - Mod of my Tesla design - D58] (puzzle: Exclusion 2) | 91.3 nM | 41.2 nM | 36.8 nM |  |  | 

Sequence | apparent KD of MS2 coat protein [1] | apparent KD of MS2 coat protein [2] | apparent KD of MS2 coat protein [3] | apparent KD of MS2 coat protein (input ligand: FMN 200 uM) | apparent KD of MS2 coat protein [4] | apparent KD of MS2 coat protein (input ligand: none)
ACGCAUUGCCUUUGGUAGUGCGUAACAUGAGGAUCACCCAUGUAGGAUAUGGUAGGCUUUGCUUACCAGAAGGACAUAAUAAUA [Mat - Exclusion NG 3 - Mod of JL - D1] (Eterna round: R96, puzzle: Exclusion NG 3) |  |  |  | 54.2 nM | 22.7 nM | 26.6 nM
GUGAUAUAGUUAGUGGCCUACAUGAGGAUCACCCAUGUGAGGGAAAUGUUGAGGCGAAAGUUGUGUGCUCGUCUGUA [JR_SV3TOV1_Sub039] (puzzle: Sensor v3, turn-off variant 1) | 23.6 nM | 38.9 nM | 26.5 nM |  |  | 
GGAUCACGAGGAUAUCGAUUUUAGUACAUGAGGAUCACCCAUGUUGUCCAGGUCUCGAUUCGAGAAGGCGUGAUUC [LRO-Ex5-05] (puzzle: Exclusion 5) |  | 34.5 nM |  |  |  | 
AGUAACUAUCACGAAAGUGAUAGUUACAAAACAAGUGGAACAUGAGGAUCACCCAUGUCCUCAUUUGCUCGUCUUAU [Sensor 3 - 4] (puzzle: Sensor v3, turn-off variant 2) | 107 nM | 238 nM | 166 nM |  |  | 
AUUAUACAUGUAGGAUAUCUGCACGUUUAGUGCAGAGAAGGACAUGAGGAUCACCCAUGUAGAUCAAUAAUAAUUAAUUUAAUU [ENG1/6-B2] (Eterna round: R96, puzzle: Exclusion NG 1) |  |  |  | 889 nM | 203 nM | 202 nM
CAAGUGUUAGGAUAUACCAGUUAAAUGCAGCUGCCGUCGGAGUAGAAGGGACAUGAGGAUCACCCAUGUCGGGA [Eternabot (L1) Solution 28] (Eterna round: R97, puzzle: Exclusion 4) |  |  |  | 46.1 nM |  | 35.1 nM
GAAAAGGUAGGAUAUACGAAAAAAAAGGGUAGAAAAAUAACACAUGAGGAUCACCCAUGUAGAAGGACCAAAAG [salish99_ex2_r3_074] (puzzle: Exclusion 2) | 111 nM | 23 nM | 29 nM |  |  | 
AGUUGGCGAGGAUAUACAUGAGGAUCACCCAUGUGAAAUAUAAUAGUGAGGAAGAAAAGUAGAAGGCGCUGACA [Mat - Exclusion 3 - Mod of Salish D42] (puzzle: Exclusion 3) |  | 42.7 nM |  |  |  | 
CGAAUUCGUUAGGAUAUGAGGCAGAGGUCCGCCUCAGAAGGAAUGACAUGAGGAUCACCCAUGUAGACCCAAGG [Eternabot (Original) Solution 1] (Eterna round: R97, puzzle: Exclusion 6) |  |  |  | 18.9 nM |  | 19.1 nM
UCGCUCCGUGUAGGAUAUCGCCGUUCUACUCGGCGAGAAGGACAUGAGGAUCACCCAUGUAUGUUAUUAUCACGUGUGGCGCGC [Design 54] (Eterna round: R96, puzzle: Exclusion NG 1) |  |  |  |  | 14.2 nM | 
UUUUAACAUGAGGAUCACCCAUGUGAGGAUAUCGAAAUUUAUAUUAAUAUUUAUUUAACGAGAAGGCACAUUUU [JMF 63] (puzzle: Exclusion 1) |  | 93.2 nM |  |  |  | 
CUAUGAGUAGGAUAUGAGCCAAAAUACAUGAGGAUCACCCAUGUCGGGUUCAUGGAGGGCUCAGAAGGAUUCAAUA [Exclusion 5 - Laarte Mod2] (Eterna round: R97, puzzle: Exclusion 5) |  |  |  | 59.8 nM |  | 17.1 nM
UAUUAAUGCAAGGAUAUGCUAUUAAUUUAUUUUGCAGAAGGUGCAACAUGAGGAUCACCCAUGUUGGAGGGUAU [JR_E6_Sub028] (puzzle: Exclusion 6) |  | 19.3 nM |  |  |  | 
UUUAAUUUUUUUUUUUUACAAGCUUUUUGCUCGUCUUAUACAUGAGGAUCACCCAUGUAGGUGGAGGAUAAAUUAUC [JMF 36] (puzzle: Sensor v3, turn-off variant 2) | 23.5 nM | 56.1 nM | 25.5 nM |  |  | 
GCCAGAGCAGGAUAUUCAAUAUCACACAUGAGGAUCACCCAUGUCUAUCGAAAGAUAGAGGGAGAAGGGCUCUGGC [Mat - Exclusion 5 - Eli mod - D94] (puzzle: Exclusion 5) |  | 55.2 nM |  |  |  | 
CUAGCGAUUGUAGGAUAUCGGACUGUUUCAGUCUGAGAAGGACAUGAGGAUCACCCAUGUGAAGGAUCGUGAGAUCCACGCUAG [JL ENG1 3.79] (Eterna round: R96, puzzle: Exclusion NG 1) |  |  |  | 112 nM | 17.9 nM | 22 nM
CGGUGCUGAGGAUAUACAUGAGGAUCACCCAUGUGUUCCAGCUAGCGUACUGGCAGAUGUAGAAGGCGGUACUG [JL-ex3-3.42 Brourd mod] (puzzle: Exclusion 3) | 78.9 nM | 19.9 nM | 19 nM |  |  | 

— the supplement of paper PMC9170038
